Laboratory results reported in patent US6866854.

Biological target: p53 (UniProt P04637)
Assay: cell-based or functional assay

Chain of p53 (P04637 whole entry): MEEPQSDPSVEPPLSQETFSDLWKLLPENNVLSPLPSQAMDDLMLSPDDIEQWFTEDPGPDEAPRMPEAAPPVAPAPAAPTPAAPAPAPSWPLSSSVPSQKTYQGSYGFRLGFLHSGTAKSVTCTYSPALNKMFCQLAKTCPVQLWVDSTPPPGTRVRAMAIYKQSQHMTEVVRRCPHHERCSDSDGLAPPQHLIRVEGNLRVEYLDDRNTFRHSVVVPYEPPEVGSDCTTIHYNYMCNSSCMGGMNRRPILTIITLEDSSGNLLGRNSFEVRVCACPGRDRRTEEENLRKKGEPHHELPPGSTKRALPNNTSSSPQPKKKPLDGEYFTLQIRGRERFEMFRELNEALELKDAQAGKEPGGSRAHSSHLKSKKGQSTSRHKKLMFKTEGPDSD

For “Kaposi's sarcoma-associated herpesvirus latency-associated nuclear antigen 2 (LANA2) (from UniProt F5HIC6 1-566)”, the inhibition of doxorubicin-induced (endogenous p53) activation of the pG13-Luc reporter in U2OS cells was 57%, the inhibition of p53 activation of the pG13-Luc reporter in SAOS-2 cells was 87% and the subdiploid (apoptotic) fraction of SAOS-2 cells expressing p53 with LANA2, propidium iodide flow cytometry was 10.8%.
